This note sets out measurements from patent US20160369001A1 (JCR PHARMACEUTICALS, published 2016).

To fix the notation:
B1: mouse single-chain anti-hTfR antibody of Clone M23 (maltose binding protein fusion, E. coli lysate supernatant) (scFv, not shown: large carriers)
scFv: DYKDIVITQSHKFMSTSVGDRVSITCKASQDVSTAVAWYQQKPGQSPKLLIYSASYRYTGVPDRFTGSGSGTDFTFTISSVQAEDLAVYYCQQHYSTPYTFGGGTKLEIKRGGGGSGGGGSGGGGSGGGGSQVQLQQSGAELVRPGASVTLSCKASGYTFTDYEMHWVKQTPVHGLEWIGAIDPETGGTAYNQKFKGKATLTADKSSSTAYMELRSLTSEDSAVYYCTGWGFDYWGQGTTLTVSS
notes: Tested in the screening ELISA as an MBP fusion in crude E. coli lysate supernatant and detected with an HRP-labelled anti-MBP antibody
B2: mouse single-chain anti-hTfR antibody of Clone M11 (maltose binding protein fusion, E. coli lysate supernatant) (scFv, not shown: large carriers)
scFv: DYKDIVMTQSHKFMSTSVGDRVSITCKASQDVGTAVAWYQQKPGQSPKLLIYWASTRHTGVPDRFTGSGSGTDFTLTISNVQSEDLADYFCQQYSSYLTFGAGTKLELKRGGGGSGGGGSGGGGSGGGGSEVMLVESGGDLVKPGGSLKLSCAASGFTFSSYGMSWVRQTPDKRLEWVATISSGGSYTYYPDSVKGRFTISRDNAKNTLYLQMSSLKSEDTAMYYCALLRSDWYFDVWGAGTTVTVSS
notes: Tested in the screening ELISA as an MBP fusion in crude E. coli lysate supernatant and detected with an HRP-labelled anti-MBP antibody; The scFv is light chain, linker, heavy chain
B3: mouse single-chain anti-hTfR antibody of Clone M27 (maltose binding protein fusion, E. coli lysate supernatant) (scFv, not shown: large carriers)
scFv: DYKDIVMTQSHKFMSTSVGDRVSITCKASQDVGTAVAWYQQKPGQSPKLLIYWASTRHTGVPDRFTGSGSGTDFTLTISNVQSEDLADYFCQQYSSYPYTFGGGTKLEIKRGGGGSGGGGSGGGGSGGGGSQVQLQQPGSELVRPGASVKLSCKASGYTFTSYWMHWVKQRPGQGLEWIGNIYPGSGSTNYDEKFKSKATLTVDTSSSTAYMQLSSLTSEDSAVYYCTRGATALDYWGQGTTLTVSS
notes: Tested in the screening ELISA as an MBP fusion in crude E. coli lysate supernatant; also called Clone 27

T1 sequence (P02786 89-760 limits assumed): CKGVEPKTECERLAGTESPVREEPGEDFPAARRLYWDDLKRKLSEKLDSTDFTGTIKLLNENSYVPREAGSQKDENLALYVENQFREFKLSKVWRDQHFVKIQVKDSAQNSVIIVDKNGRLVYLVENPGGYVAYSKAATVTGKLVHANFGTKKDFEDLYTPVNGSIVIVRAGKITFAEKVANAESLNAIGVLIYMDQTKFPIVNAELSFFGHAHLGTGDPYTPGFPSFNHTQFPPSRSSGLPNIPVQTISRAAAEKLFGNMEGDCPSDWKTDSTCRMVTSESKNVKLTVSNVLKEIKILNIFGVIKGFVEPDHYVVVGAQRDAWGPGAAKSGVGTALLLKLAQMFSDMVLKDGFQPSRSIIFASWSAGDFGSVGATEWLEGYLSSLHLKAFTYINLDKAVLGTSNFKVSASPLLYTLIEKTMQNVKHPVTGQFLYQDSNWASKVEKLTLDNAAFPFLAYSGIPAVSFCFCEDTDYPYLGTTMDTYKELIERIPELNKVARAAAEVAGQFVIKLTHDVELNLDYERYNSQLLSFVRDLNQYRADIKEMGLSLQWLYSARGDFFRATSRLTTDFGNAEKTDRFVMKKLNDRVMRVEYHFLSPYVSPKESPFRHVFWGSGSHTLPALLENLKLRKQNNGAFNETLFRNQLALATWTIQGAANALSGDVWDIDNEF

This test has as its target T1, recombinant human TfR (rhTfR) (Sino Biological) (human, UniProt P02786 89-760).
T1 construct: Bought protein, coated on 96-well plates at 5 ug/mL; also called human transferrin receptor
Briefly: ELISA, rhTfR coated on plate, MBP-scFv lysate supernatant, HRP-labelled anti-MBP detection, A450. As to the method: E. coli (JM109) was transformed respectively with the mouse and human single-chain anti-hTfR antibody cDNA libraries, and then disseminated on LB plates containing ampicillin (Amp), and cultured overnight at 37° C. On the following day, the colonies formed on the plates were collected one by one, with which Overnight Express™ Instant LB Medium (Novagen), which had been dispensed beforehand to 96-well plates, was inoculated. After the plates were shaken overnight at 37° C., a tenth amount of Popculture Reagent (Novagen) was added to lyse the cells, and following addition of an equal amount of TBS-T, the resulting mixture was centrifuged to collect the supernatant. This supernatant was used as a sample solution.
To each well of the 96-well plates was added 5 μg/mL of recombinant human TfR (rhTfR) (Sino Biological) or 50 μL of bovine gamma globulin (Bio-Rad, Inc.), and the plates were left undisturbed at 4° C. overnight. After removal of the solution, each well was washed once with 300 μL of TBS-T. Then, to each well was added 300 μL of 1% BSA solution, and the plates were left undisturbed for 30 minutes at room temperature. After removal of the solution, 100 μL of the above sample solution was added to each well, and the plates were left undisturbed for two hours at room temperature. After removal of the solution, each well was washed three times with 300 μL of TBS-T, and 50 μL of HRP-labelled anti MBP antibody (Novagen) was added, and the plates were left undisturbed for one hour at room temperature. After removal of the solution, each well was washed three times with 300 μL of TBS-T, then 50 μL of POD substrate solution (Nacalai Tesque, Inc.) was added, and a reaction was allowed to proceed for 10-15 minutes at room temperature. […] Three clones, M11, M23 and M27 were obtained as high affinity clones to rhTfR from the mouse single-chain anti-hTfR antibody cDNA library. A clone (B84) was obtained as a high affinity clone to rhTfR from the human single-chain anti-hTfR antibody cDNA library.
Turning to B1, the binding result is on record as “binds”.
The same measure for B2: “binds”; for B3: “binds”.
